Here are results for 19 molecules from article PMC5340008 (BMC Biochemistry, 2017).

Assay [1] deals with Bacillus anthracis Bla1 β-lactamase (Bacillus anthracis).
Another assay concerns the target TEM-1 β-lactamase (UniProt P62593 24-286). Put plainly: β-lactamase inhibition assay (nitrocefin hydrolysis, Morrison tight-binding fit); increasing concentrations of BLIP incubated with 1 nM β-lactamase for 1 h at room temperature in 50 mM sodium phosphate pH 7.0; nitrocefin added at its Km, initial velocity at 482 nm; Ki calculated from Ki app. The note with it: both partners purified.

Another assay concerns the target KPC-2 β-lactamase (UniProt Q9F663 25-293). Described as above. The note with it: both partners purified.

Numbering of substitutions follows the chain as printed.

For the molecule “β-lactamase inhibitory protein (BLIP), wild type (from UniProt P35804 37-201) (natural protein)”, the Ki in assay [1] is 2.5 nM.

B1: BLIP [change] (natural protein)
chain: AGVMTGAKFTQIQFGMTRQQVLDIAGAENCETGGSFGDSIHCRGHAAGDQYAYATFGFTSAAADAKVDSKSQEKLLAPSAPTLTLAKFNQVTVGMTRAQVLATVGQGSCTTWSEYYPAYPSTAGVTLSLSCFDVDGYSSTGFYRGSAHLWFTDGVLQGKRQWDLV
For B1, the Ki with TEM-1 β-lactamase was 0.24 nM; with KPC-2 β-lactamase, 1 nM.

B2: BLIP [change] (natural protein)
chain: B1 chain with Q50H
Regarding B2, the Ki was 5 nM in the assay with TEM-1 β-lactamase and 1.4 nM in the assay with KPC-2 β-lactamase.

B3: BLIP [change] (natural protein)
chain: B1 chain with Q50G
For B3, the results for the Ki with TEM-1 β-lactamase and with KPC-2 β-lactamase were 0.4 nM and 0.72 nM, respectively.

B4: BLIP [change] (natural protein)
chain: B1 chain with Q50K
For B4, the Ki in the assay with TEM-1 β-lactamase was 195 nM; with KPC-2 β-lactamase, 260 nM.

B5: BLIP [change] (natural protein)
chain: B1 chain with Q50L
For B5, the Ki is 0.17 nM with TEM-1 β-lactamase and 0.7 nM in the assay with KPC-2 β-lactamase.

B6: BLIP [change] (natural protein)
chain: B1 chain with Q50C
On to B6, for which the values for the Ki with TEM-1 β-lactamase and in the assay with KPC-2 β-lactamase were 60 nM and 42 nM, respectively.

B7: BLIP [change] (natural protein)
chain: B1 chain with Q50A
In the case of B7, the Ki in the assay with KPC-2 β-lactamase was 1.9 nM.

B8: BLIP [change] (natural protein)
chain: B1 chain with Q50T
As for B8, the Ki in the assay with TEM-1 β-lactamase was 2.5 nM; with KPC-2 β-lactamase it was 3.5 nM.

B9: BLIP [change] (natural protein)
chain: B1 chain with Q50S
With B9, the Ki in the assay with TEM-1 β-lactamase is 1.1 nM; with KPC-2 β-lactamase, 5 nM.

B10: BLIP [change] (natural protein)
chain: B1 chain with Q50E
As to B10, the Ki in the assay with TEM-1 β-lactamase was 76 nM; with KPC-2 β-lactamase, 5.5 nM.

B11: BLIP [change] (natural protein)
chain: B1 chain with Q50N
With B11, the Ki in the assay with TEM-1 β-lactamase is 7.8 nM; with KPC-2 β-lactamase, 3.8 nM.

B12: BLIP [change] (natural protein)
chain: B1 chain with Q50V
On to B12, for which the Ki is 3.5 nM with TEM-1 β-lactamase and 10 nM in the assay with KPC-2 β-lactamase.

B13: BLIP [change] (natural protein)
chain: B1 chain with Q50F
B13: the Ki was 10.3 nM in the assay with TEM-1 β-lactamase and 15 nM in the assay with KPC-2 β-lactamase.

B14: BLIP [change] (natural protein)
chain: B1 chain with Q50W
Take B14: the Ki in the assay with TEM-1 β-lactamase was 11 nM; with KPC-2 β-lactamase, 1.1 nM.

B15: BLIP [change] (natural protein)
chain: B1 chain with Q50R
Turning to B15, the Ki with TEM-1 β-lactamase was 69 nM; in the assay with KPC-2 β-lactamase, 11 nM.

B16: BLIP [change] (natural protein)
chain: B1 chain with Q50P
As for B16, the Ki with TEM-1 β-lactamase was 40 nM; with KPC-2 β-lactamase, 5 nM.

B17: BLIP [change] (natural protein)
chain: B1 chain with Q50M
As for B17, the figures for the Ki in the assay with TEM-1 β-lactamase and with KPC-2 β-lactamase were 0.11 nM and 0.5 nM, respectively.

B18: BLIP [change] (natural protein)
chain: B1 chain with Q50D
With B18, the Ki with TEM-1 β-lactamase was 160 nM; in the assay with KPC-2 β-lactamase, 3.2 nM.
